# From article PMC2120674
# Experiments:
# [1] = target: two chain urokinase-type plasminogen activator (uPA); assay: SDS-PAGE of the protease-serpin complex
# [2] = target: human urokinase-type plasminogen activator receptor (uPAR) expressed in mouse LB6 clone 19 cells (human) (UniProt Q03405); assay: radioligand binding
# Sequence of UniProt Q03405 (Q03405 23-305): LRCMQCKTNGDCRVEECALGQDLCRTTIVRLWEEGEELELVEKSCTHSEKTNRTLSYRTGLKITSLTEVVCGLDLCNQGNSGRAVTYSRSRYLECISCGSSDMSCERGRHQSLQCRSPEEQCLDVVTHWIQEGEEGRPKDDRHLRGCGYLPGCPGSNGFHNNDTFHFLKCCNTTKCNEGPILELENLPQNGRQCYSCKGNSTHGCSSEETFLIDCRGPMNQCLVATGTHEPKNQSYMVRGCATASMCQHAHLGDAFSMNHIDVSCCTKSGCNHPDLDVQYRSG
Substance,percent of uPA converted to the complex form [1] [%],bound radioactivity at 4C (with cycloheximide) [2] [fmol/well],bound radioactivity at 4C (without cycloheximide) [2] [fmol/well]
"plasminogen activator inhibitor type-1 (PAI-1), recombinant active (from UniProt P05121 24-402) (natural protein)",> 90,,
uPA-PAI-1 complex (urokinase with plasminogen activator inhibitor type-1) (from UniProt P05121 24-402),,19.4,18.7
